Target: T1, EGFR-ECD (extracellular domain of human epidermal growth factor receptor, 1-643) (Homo sapiens, UniProt P00533, N-linked oligosaccharides cleaved by endoglycosidase H)
T1 construct: human epidermal growth factor receptor, extracellular domain, residues 1-643 as printed; A TEV site between the ECD and the His-tag is implied by the cleavage; also called extracellular domain of human EGFR; human EGFR-ECD; source: HEK293S GnTI- cells, transient overexpression, secreted; purified (HisTrap, TEV cleavage of the His-tag, endoglycosidase H, HiTrap Q, SEC); not shown: His-tag, …
Experiment: SPR; BIAcore 3000; EGFR-ECD immobilised on a CM5 chip by amine coupling; single-cycle kinetics with 50.0, 16.6, 5.55, 1.85 and 0.617 nM Fv or Fab; 30 ul/min, 60-s association, 120-s dissociation; 25 C; HBS-EP+ buffer; triplicate
Conditions: both partners purified

Row | Binder | Kd [nM] | koff [s⁻¹] | kon [M⁻¹ s⁻¹]
1 | 059-152-Fv (Fv fragment of the fully human anti-EGFR antibody 059-152) (other, also in PDB 5XWD; VL also in PDB 5XWD; Fv: VH and VL synthesised together as two separate chains; source: cell-free synthesis (E. coli S30 extract, dialysis mode, 0.2 mg/ml DsbC), purified (HisTrap, TEV cleavage, SEC); not shown: N11-tag, N-terminal, cleaved) VH: QVQLQESGPGLVKPSETLSLTCTVSGGSISSSSYYWGWIRQPPGKGLEWIGSIYYSGSTYYNPSLKSRVTISVDTSKNQFSLKLSSVTAADTAVYYCARLPMVTMSFDYWGQGTLVTVSS VL: SYVLTQPPSVSVAPGKTARITCGGNNIGSKSVHWYQQKPGQAPVLVIYYDSDRPSGIPERFSGSNSGNTATLTISRVEAGDEADYYCQVWDSSSDHVVFGGGTKLTVL | 5.9 ± 0.1 | 0.0147 | 2.49e+06
2 | 059-152-Fab (Fab fragment of the fully human anti-EGFR antibody 059-152) (Fab, V domains shown, also in PDB 5XWD; its VL part is in PDB 5XWD; source: cell-free synthesis (E. coli S30 extract, dialysis mode, 0.8 mg/ml DsbC), purified (HisTrap, TEV cleavage, SEC); not shown: N11-tag, N-terminal, cleaved) VH: QVQLQESGPGLVKPSETLSLTCTVSGGSISSSSYYWGWIRQPPGKGLEWIGSIYYSGSTYYNPSLKSRVTISVDTSKNQFSLKLSSVTAADTAVYYCARLPMVTMSFDYWGQGTLVTVSS VL: SYVLTQPPSVSVAPGKTARITCGGNNIGSKSVHWYQQKPGQAPVLVIYYDSDRPSGIPERFSGSNSGNTATLTISRVEAGDEADYYCQVWDSSSDHVVFGGGTKLTVL | 7.7 ± 0.1 | 0.015 | 1.94e+06
3 | AzF-incorporated 059-152-Fab (Fab, V domains shown, also in PDB 5XWD; linker inserted just before the stop codon, followed by the amber codon that is read as AzF; AzF is the last residue of the VHCH1 chain, after the linker; also called AzF-incorporated Fab; not shown: N11-tag, N-terminal, cleaved) VH: QVQLQESGPGLVKPSETLSLTCTVSGGSISSSSYYWGWIRQPPGKGLEWIGSIYYSGSTYYNPSLKSRVTISVDTSKNQFSLKLSSVTAADTAVYYCARLPMVTMSFDYWGQGTLVTVSS VL: SYVLTQPPSVSVAPGKTARITCGGNNIGSKSVHWYQQKPGQAPVLVIYYDSDRPSGIPERFSGSNSGNTATLTISRVEAGDEADYYCQVWDSSSDHVVFGGGTKLTVL | 7 ± 0.1 | 0.0125 | 1.78e+06
4 | Alexa-488 conjugated 059-152-Fab (Fab, V domains shown, also in PDB 5XWD; linker inserted just before the stop codon, followed by the amber codon that is read as AzF; m6 after copper-free click chemistry; also called Alexa-488 conjugated Fab; not shown: N11-tag, N-terminal, cleaved) VH: QVQLQESGPGLVKPSETLSLTCTVSGGSISSSSYYWGWIRQPPGKGLEWIGSIYYSGSTYYNPSLKSRVTISVDTSKNQFSLKLSSVTAADTAVYYCARLPMVTMSFDYWGQGTLVTVSS VL: SYVLTQPPSVSVAPGKTARITCGGNNIGSKSVHWYQQKPGQAPVLVIYYDSDRPSGIPERFSGSNSGNTATLTISRVEAGDEADYYCQVWDSSSDHVVFGGGTKLTVL | 8.1 ± 0.2 | 0.0133 | 1.67e+06
5 | AzF-incorporated 059-152-Fv (other, human, also in PDB 5XWD; linker inserted just before the stop codon, followed by the amber codon that is read as AzF; Fv; AzF is the last residue of the VH chain, after the linker; also called AzF-incorporated Fv; not shown: N11-tag, N-terminal, cleaved) VH: QVQLQESGPGLVKPSETLSLTCTVSGGSISSSSYYWGWIRQPPGKGLEWIGSIYYSGSTYYNPSLKSRVTISVDTSKNQFSLKLSSVTAADTAVYYCARLPMVTMSFDYWGQGTLVTVSS VL: SYVLTQPPSVSVAPGKTARITCGGNNIGSKSVHWYQQKPGQAPVLVIYYDSDRPSGIPERFSGSNSGNTATLTISRVEAGDEADYYCQVWDSSSDHVVFGGGTKLTVL | 5.8 ± 0.2 | 0.0137 | 2.36e+06
6 | Alexa-488 conjugated 059-152-Fv (other, human, also in PDB 5XWD; linker inserted just before the stop codon, followed by the amber codon that is read as AzF; Fv; m3 after copper-free click chemistry; also called Alexa-488 conjugated Fv; not shown: N11-tag, N-terminal, cleaved) VH: QVQLQESGPGLVKPSETLSLTCTVSGGSISSSSYYWGWIRQPPGKGLEWIGSIYYSGSTYYNPSLKSRVTISVDTSKNQFSLKLSSVTAADTAVYYCARLPMVTMSFDYWGQGTLVTVSS VL: SYVLTQPPSVSVAPGKTARITCGGNNIGSKSVHWYQQKPGQAPVLVIYYDSDRPSGIPERFSGSNSGNTATLTISRVEAGDEADYYCQVWDSSSDHVVFGGGTKLTVL | 6.1 ± 0.1 | 0.0154 | 2.52e+06

Reference: publication PMC5819829, “Cell-free synthesis of functional antibody fragments to provide a structural basis for antibody–antigen interaction” (PLoS ONE, 2018)
